# Reference: patent US9005962B2, “Regionalised endoderm cells and uses thereof” (The University Court of the University of Edinburgh, priority 2007, dated 2015)
# B1: Bmp4: bone morphogenetic protein, 10 ng/ml (protein, UniProt P12644 293-408, looked up)
# Bone morphogenetic protein 4: SPKHHSQRARKKNKNCRRHSLYVDFSDVGWNDWIVAPPGYQAFYCHGDCPFPLADHLNSTNHAIVQTLVNSVNSSIPKACCVPTELSAISMLYLDEYDKVVLKNYQEMVVEGCGCR
# How the values were obtained:
# Hex^RS ES cells [1] = test: ADE (H+C+) induction, two-step suspension (embryoid body) differentiation with serum day 0-2, flow cytometry for RS and Cxcr4; format: cell-based, mouse
# Method: ADE was induced under serum-containing conditions using a 2-step protocol. ES cells were seeded onto non-coated 10 cm petri dishes (sterilin) at a density of 5×10^3 cells/ml in Glasgow minimum essential medium (G-MEM; GIBCO-BRL) supplemented with 10% fetal calf serum (FCS), 0.1 mM nonessential amino acids (GIBCO-BRL), 1 mM sodium pyruvate, 2 mM glutamine and 0.1 mM 2-mercaptoethanol (2ME). Following 2 days of culture the resulting embryoid bodies (EBs) were harvested by centrifugation at 500 rpm for 1 min and replated on 10 cm non-coated petri dishes at the same density in N2B27 culture medium (StemCellSciences) supplemented with 20 ng/ml activin A (R&D). The media was replaced 2 days later and then every 3 days for the duration of the experiment. For some experiments 20 ng/ml EGF, 10 ng/ml Bmp4, 20 ng/ml activin A (R&D), 1×10^−5M all-trans retinoic acid (Sigma) and 3 μM CHIR99021 (a gift from StemCellSciences) were added to the culture at the indicated timepoints.
# (§1) FITC-conjugated rat anti-CD184 (CXCR4), FITC-conjugated rat anti-CD31 and FITC conjugated rat anti-CD45 were purchased from BD Pharmingen. EBs generated under various different differentiation conditions were dissociated by treatment with cell dissociation buffer (PBS based) (GIBCO-BRL). Cells were washed in PBS supplemented with 10% FCS (FB) and resuspended at a maximum density of 5×10^6 cells/ml. For surface staining 200 μl of cells were plated in a V shape 96 well polystyrene plate (Sterilin) in PBS supplemented with 1% serum of the species in which the antibody was manufactured. The FITC-conjugated antibody or a FITC-conjugated isotype control was added at a 1:100 dilution. Cells were incubated in the dark for 20 mins, washed 3 times with FB and resuspended in FB supplemented with Topro3-iodide (Invitrogen) to exclude dead cell from the analysis. Cells were analysed using a FACS Calibur (BD Biosciences) or sorted using a MoFlo MLS flow cytometer (DakoCytomation).
# Mouse ES cells were cultured according to Li et al., (1995). ADE was induced under serum-containing conditions using a 2-step protocol. ES cells were seeded onto non-coated 10 cm petri dishes (Sterilin) at a density of 5×10^3 cells/ml in GMEM supplemented as described in Li et al., (1995) except in the absence of LIF. EBs were harvested after two days by centrifugation and replated in N2B27 medium (StemCellSciences) supplemented with 20 ng/ml activin A (R&D) and 20 ng/ml EGF (R&D). This media was replaced again two days later. 10 ng/ml BMP4, 20 ng/ml activin A (R&D) and 1×10^−5M all-trans retinoic acid (Sigma) were added where indicated.
# (§2) FITC-conjugated rat anti-CD184 (Cxcr4), FITC-conjugated rat anti-CD31 and FITC conjugated rat anti-CD45 were purchased from BD Pharmingen. Cells were stained with Topro3-iodide (Invitrogen) to exclude dead cells from the analysis. Cells were analysed using a FACS Calibur (BD Biosciences) or sorted using a MoFlo MLS flow cytometer (DakoCytomation).
# Hex^RS ES cells [2] = test: ADE (H+C+) induction, serum-free suspension (aggregation) culture, flow cytometry; format: cell-based; conditions: added during the first two days; serum-free, aggregation and monolayer (Table 7)
# Method: For ADE induction under serum-free conditions in suspension culture, ES cells were seeded onto non-coated 10 cm Petri dishes at 5×10^3 cells/ml in N2B27 culture medium supplemented with 10 ng/ml Bmp4 and 20 ng/ml activin A. Following 2 days of culture the resulting EBs were harvested as above and replated on non-coated Petri dishes at the same density in SF03 culture medium (ref Tada 2005) supplemented with 20 ng/ml activin A and 20 ng/ml EGF. The media was replaced 2 days later and then every 3 days for the duration of the experiment. For some experiments 10 ng/ml Fgf4 (R&D), 10 ng/ml Bmp4, 20 ng/ml Activin A, 1×10^−5M all-trans retinoic acid, 100 ng/ml PD173074 (Sigma), 20 ng/ml EGF and 3 μM CHIR99021 were added to the culture at the indicated timepoints.
# as §1, with “(DakoCytomation). […]” for “(DakoCytomation).”
# FITC-conjugated rat anti-CD184 (Cxcr4), FITC-conjugated rat anti-CD31 and FITC conjugated rat anti-CD45 were purchased from BD Pharmingen. […] Cells were analysed using a FACS Calibur (BD Biosciences) or sorted using a MoFlo MLS flow cytometer (DakoCytomation).
# Hex^RS ES cells [3] = test: ADE (H+C+) induction, serum-free adherent monolayer culture, flow cytometry, RT-PCR and immunostaining; format: cell-based; conditions: monolayer culture
# Method: For ADE induction under serum-free conditions in adherent monolayer culture, ES cells were seeded onto gelatin coated 3 cm 6 well dishes (Iwaki) at a density of 1×10^4 cells/ml in N2B27 medium (StemCellSciences) supplemented with 10 ng/ml Bmp4, 20 ng/ml activin A and 10 ng/ml Fgf4. Following 2 days of culture the media was replaced with SF03 culture medium (Tada 2005) supplemented with 20 ng/ml activin A, 10 ng/ml Fgf4 and 20 ng/ml EGF. The media was replaced 2 days later and then every 3 days for the duration of the experiment. For some experiments 1×10^−5M all-trans retinoic acid, 100 ng/ml PD173074 and 3 μM CHIR99021 were added to the culture at the indicated timepoints.
# as §1
# Total RNA was prepared from a minimum of 1×10^4 cells from sorted cell fractions, EBs, monolayer differentiated cells or ES cells using Trizol reagent (Invitrogen). 1 μg of RNA was used as a template for cDNA synthesis using Superscript III (Invitrogen). Real-time RT-PCR was performed using a LightCycler 480 (Roche) and LightCycler 480 SYBR Green 1 Master (Roche). The following cycling conditions were used: denaturation: 95° C. 5 sec, amplification: 95° C. 5 sec, 58° C. 10 sec, 72° C. 20 sec (45 cycles), 81° C. 1 sec, melt: 95° C. 1 sec, 65° C. 10 sec, 95° C. −ramp 5 C per sec continuous, cool: […] 10 sec. Standard curves were generated from plasmid. Samples were normalized to β-actin or TATA-box binding protein (TBP) expression levels.
# Sorted cells were seeded onto gelatin coated 24 well dishes (Iwaki). Adherence of cells to the substrate was enhanced by centrifugation at 1200 rpm for 3 mins. Sorted cells, monolayer differentiated cells and ES cells were washed in PBS, fixed in 4% paraformaldehyde for 10 mins and permeabilised by washing in PBS supplemented with 0.1% Triton X (PBST). Cells were treated with a blocking reagent (3% serum of same species as secondary antibody, 1% BSA in PBST) for 15 min before incubation with the primary antibody at 4° C. overnight. The cells were washed with PBST and incubated with the appropriate fluorescence-tagged secondary antibody for 2 hr at room temperature. The cells were washed with PBST and DAPI added during the final wash. The following primary antibodies were used, all are anti-mouse: anti-Oct3/4, anti-HNF-3β (Foxa2), anti-HNF-4α (Santa Cruz), anti-Cer11 (R&D), anti-E-cadherin (Takara Bio Inc) anti-alpha fetoprotein (NeoMarkers), anti-albumin (Bethyl laboratories inc). Anti-Pdx1 was a gift from P. Serup. […]
# as §2
molecule,measurement,setting,value
B1,induction of the RS positive population,Hex^RS ES cells [1]; added either at day 0 or day 3 (Table 2),completely blocked
same,CXCR4 induction,"Hex^RS ES cells [1]; added either at day 0 or day 3, data not shown",without effecting
same,total number of surviving cells at the end of the 7 day differentiation,Hex^RS ES cells [2],significantly increased
same,H+C+ percentage,Hex^RS ES cells [3],increased
